According to patent publication US20180073089:

Molecular target: recombinant substrate protein VAMP-2 (2-94)-GFP (UniProt P63027)
Sequence (P63027 2-94): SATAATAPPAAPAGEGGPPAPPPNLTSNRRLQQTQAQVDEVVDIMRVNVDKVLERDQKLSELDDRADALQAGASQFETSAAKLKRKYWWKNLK

For native BoNT/F (nBoNT/F) control, the “% of cleaved product” value was 65% versus 46% and the specific activity was 26 nmol/h/pmol vs 18 nmol/h/pmol.
